This note sets out measurements from the supplement of paper PMC7125110.

± gives the standard error. Variants at the floor of the assay were thinned out.

Sequences and labels used below:
B1: glmS ribozyme (parent)
chain: AUAAAAGCGCCAGAACUACAGAAAUGUAGUUGACGAGGAGGAGGUUUAUCGAAUUUUCGGCGGAUGCCUCCAAA

What all share (conditions): with glucosamine-6-phosphate
Variants of B1 are the subject of data set [1]. The data set can be described thus: self-cleavage kobs at 640 uM GlcN6P; higher = faster cleavage; RNA array. A digest of the protocol: (§1)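 kcat and KM were obtained from weighted Michaelis–Menten fits across concentrations of kobs values. Those came from one- or two-exponential decay fits to per-tile medians normalised to baseline and to non-cleaving reference variants. The variants were barcoded ribozymes transcribed in situ by E. coli RNA polymerase on sequenced MiSeq chips and tracked through a hybridised Cy3 probe at 37 °C, with 40 μM to 10 mM glucosamine-6-phosphate in HEPES/KCl/Mg(OAc)2 buffer flowed in.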

In data set [2] the parent is B1. The data set can be described thus: self-cleavage kobs at 2500 uM GlcN6P; higher = faster cleavage; RNA array. The method in brief:
as §1

In data set [3] the parent is B1. The experiment in a line: self-cleavage kobs at 10000 uM GlcN6P; higher = faster cleavage; RNA array. The method in brief:
as §1

As for AUAAAGGCGCCAGAACUACAGAAAUGUAGAUGACGAGGAGAAGGUUUAUCGAAUUUUCGGCGGAUGCUUCCAAA, the “self-cleavage kobs at 640 uM GlcN6P” value with glucosamine-6-phosphate [1] was under 1e-05 s⁻¹.
On the same count and under the same terms, then AUAAAAGGGCCAGAACUACAGAAAUGUAGUUGACGUGGAGGAGGUUUAUCGAAUUUUCGGCGGAUGCCUUCAAA, with under 1e-05 s⁻¹.
For the variant AUAAAAGCGCCAGAACUACAGAAAUGUAUUUGACGAGGAGGAGGUUUAUCGAAUUUUCGGCGGAUCCCUCCAAA, the “self-cleavage kobs at 640 uM GlcN6P” value with glucosamine-6-phosphate [1] was 4.59e-05 ± 1.9e-05 s⁻¹. Also, the “self-cleavage kobs at 2500 uM GlcN6P” value with glucosamine-6-phosphate [2] came out at 9.16e-05 ± 2.9e-05 s⁻¹.
On to AUAAAAGCGCCAUAACUACAGAAAUGUAGUUGACGAGGAGGAGGUUUAUCGAAUUGUCGGCGGAUGCCUGCAAA, for which the “self-cleavage kobs at 640 uM GlcN6P” value with glucosamine-6-phosphate [1] was 6.47e-05 ± 3.1e-05 s⁻¹. Moreover, the “self-cleavage kobs at 2500 uM GlcN6P” value in the data set with glucosamine-6-phosphate [2] stood at 4.09e-05 ± 1.9e-05 s⁻¹.
On to AUAAAAGCGCCAGAACUACAGAAAUGUAGUUGACGAGGAGGAGGUUUAUCGAAUUUUCGGGGAAUGCCUCGAAA, for which the “self-cleavage kobs at 640 uM GlcN6P” value with glucosamine-6-phosphate [1] stood at 0.000127 ± 4.2e-05 s⁻¹. For the same variant, in the data set with glucosamine-6-phosphate [2], the “self-cleavage kobs at 2500 uM GlcN6P” value came out at 0.000255 ± 9.2e-05 s⁻¹.
Turning to AUAAAAGCGCCAGAACUACAGAAAUGUAGAUGACGAGGAGGAGGUUUAUCGAAUUUUCGGCGGAUGCCUCGAAA, the “self-cleavage kobs at 640 uM GlcN6P” value with glucosamine-6-phosphate [1] came out at 0.000371 ± 0.00016 s⁻¹. Besides, the “self-cleavage kobs at 2500 uM GlcN6P” value with glucosamine-6-phosphate [2] is 0.000129 ± 5.8e-05 s⁻¹. Also, in the data set with glucosamine-6-phosphate [3], the “self-cleavage kobs at 10000 uM GlcN6P” value was 0.00032 ± 7.6e-05 s⁻¹.
Consider AUAAAAGCGCCAGAACUACAGAAAUGUAGUUGACGAGGAGGAGGUUUAUCCAAUUUUCGGCGUAUGCCUCCAAA, for which, in the data set with glucosamine-6-phosphate [1], the “self-cleavage kobs at 640 uM GlcN6P” value is under 1e-05 s⁻¹. Moreover, the “self-cleavage kobs at 10000 uM GlcN6P” value in the data set with glucosamine-6-phosphate [3] is under 1e-05 s⁻¹.
In the case of AUAAAAGCGCCAGAACUACAGAAAUGUAGUUGACGAGGAGUAGGUUUAUCGAAUUUUGGGUGGUUGCCUCUAAA, the “self-cleavage kobs at 640 uM GlcN6P” value with glucosamine-6-phosphate [1] was under 1e-05 s⁻¹.
Consider AUAAAAGCGCCAGAACUACAGAAAUGUAGUUGACGAGUAGGAGGUUUAUAGAAUUUUCGGCGGAUGCCUCCAAA, for which the “self-cleavage kobs at 640 uM GlcN6P” value with glucosamine-6-phosphate [1] is under 1e-05 s⁻¹. The “self-cleavage kobs at 2500 uM GlcN6P” value with glucosamine-6-phosphate [2] is under 1e-05 s⁻¹.
Take AUAAAAGCGUCAGAACUACAGAAAUGUAGUUGGCGAGGAUGAGGUUUAUCGAAUUUUCGGCGGAUGCCUCCAAA: in the data set with glucosamine-6-phosphate [1], the “self-cleavage kobs at 640 uM GlcN6P” value is under 1e-05 s⁻¹.
Consider AUAAAAGCGCCAGAACUACAGAAAUGUAGUUGACGAGGAGGAGCUUUAUCGAAUUUGUGGCGGAUGCCUCCAAA, for which, in the data set with glucosamine-6-phosphate [1], the “self-cleavage kobs at 640 uM GlcN6P” value is under 1e-05 s⁻¹.
As to AUAAAAGCGCCAGAACUACAGAAAUGUAGUUGAUGAGGAGGAUGUUUAUCGAAUUUUCCGCGGAUGCCUCCAAA, the “self-cleavage kobs at 640 uM GlcN6P” value in the data set with glucosamine-6-phosphate [1] was under 1e-05 s⁻¹. Besides, in the data set with glucosamine-6-phosphate [2], the “self-cleavage kobs at 2500 uM GlcN6P” value is under 1e-05 s⁻¹.
Turning to AUAAAAGCGCCAGAACUACAGAAAUGUAGUUGACGAGGAGGAGUUUUAUCGAAUUUUCGGCGGUUGCAUCCAAA, the “self-cleavage kobs at 640 uM GlcN6P” value with glucosamine-6-phosphate [1] is under 1e-05 s⁻¹.
For AUAAAAGAGCCAGAACUACAGAAAUGUAGUUGACGAUGAGGAGGUUUAUCGGAUUUUCGGCGGAUGCCUGCAAA, the “self-cleavage kobs at 640 uM GlcN6P” value in the data set with glucosamine-6-phosphate [1] is 0.000115 ± 5.1e-05 s⁻¹.
For the variant AUAAAAGGGCCAGAACUACAGAAAUGUAGUUAACGAGGGGGAGGUUUAUCGAAAUUUCGGCGGAUGCCUCCAAA, the “self-cleavage kobs at 640 uM GlcN6P” value with glucosamine-6-phosphate [1] is under 1e-05 s⁻¹. In addition, the “self-cleavage kobs at 2500 uM GlcN6P” value with glucosamine-6-phosphate [2] was under 1e-05 s⁻¹.
As for AUAAAAGCGCAAGAACUACAGAAAUGUAGUUGACGAGGAGGAGGUUUAUGGAAUUUGCGGCGGAUGCCUCCAAA, in the data set with glucosamine-6-phosphate [1], the “self-cleavage kobs at 640 uM GlcN6P” value was 8.51e-05 ± 3e-05 s⁻¹. Further, the “self-cleavage kobs at 2500 uM GlcN6P” value in the data set with glucosamine-6-phosphate [2] came out at 7.4e-05 ± 2.5e-05 s⁻¹.
AUAAAUGCGCCAGAACUACAGAAAUGUAGUUGACGAGGAGGAUGUUUAUCGAAUUUUCGGCGGAUGCCUGCAAA: the “self-cleavage kobs at 640 uM GlcN6P” value with glucosamine-6-phosphate [1] was under 1e-05 s⁻¹.
On the same count and under the same terms, then AUAAAAGCGGCAGAACUACAGAAAUGUAGUUGACGAGAAGGAGGUUUAUCGAAUUUUGGGCGGCUGCCUCCAAA, with 0.000102 ± 4.5e-05 s⁻¹.
Take AUAAAAGCGCCAGAACUACAGAAAUGUAGUUGACGUGGAGGAUGUUUAUCGAAUUUUCGGCGGAAGCCUCCAAA: the “self-cleavage kobs at 640 uM GlcN6P” value in the data set with glucosamine-6-phosphate [1] is under 1e-05 s⁻¹. The “self-cleavage kobs at 2500 uM GlcN6P” value with glucosamine-6-phosphate [2] was under 1e-05 s⁻¹.
As to AUAAAAGCGCCAGUACUACAGAAAUGUAGUUGACGAGGAAGAGGUUUAUCGAAUUGCCGGCGGAUGCCUCCAAA, in the data set with glucosamine-6-phosphate [1], the “self-cleavage kobs at 640 uM GlcN6P” value was under 1e-05 s⁻¹. Also, in the data set with glucosamine-6-phosphate [2], the “self-cleavage kobs at 2500 uM GlcN6P” value is under 1e-05 s⁻¹.
Consider AUAAAAGCGCCAGAACUACAGAAAUGUAGUAGGCGAGGAGGAGGUUUACCGAAUUUUGGGCGGAUGCCUCCAAA, for which the “self-cleavage kobs at 640 uM GlcN6P” value with glucosamine-6-phosphate [1] is under 1e-05 s⁻¹.
As for AUAAAAGCGCCAGACCUACAGAAAUGUAGUUGACGAGGAGGAGGUUUUUCGAAUUUUCGGCGGAUGCUUCCAAA, the “self-cleavage kobs at 640 uM GlcN6P” value in the data set with glucosamine-6-phosphate [1] is under 1e-05 s⁻¹.
As for AUAAAAGCGCCAGAACUACAGAAAUGUAGCUCACGAGGAGGAGGUUUAUCGAAUAUUCGGCGGAUGCCUCCAAA, the “self-cleavage kobs at 640 uM GlcN6P” value with glucosamine-6-phosphate [1] was 8.42e-05 ± 1.7e-05 s⁻¹. For the same variant, the “self-cleavage kobs at 2500 uM GlcN6P” value with glucosamine-6-phosphate [2] is 0.000128 ± 3.1e-05 s⁻¹.
For the variant AUAAAACCGUCAGAACUACAGAAAUGUAGUUGACGAGGAGGAUGUUUAUCGAAUUUUCGGCGGAUGCCUCCAAA, the “self-cleavage kobs at 640 uM GlcN6P” value with glucosamine-6-phosphate [1] is under 1e-05 s⁻¹.
